Test results reported in paper PMC3200346, “A Highly Stable Plastidic-Type Ferredoxin-NADP(H) Reductase in the Pathogenic Bacterium Leptospira interrogans” (PLoS ONE, 2011).
Values belong to the molecule of their own block, whether it stands above or below them.

Key:
[1] = target: Leptospira interrogans ferredoxin-NADP(H) reductase (L. interrogans)
Pea leaf FNR = target: T1, Pea leaf FNR (Lathyrus oleraceus, UniProt P10933); test: difference absorption spectroscopy; assay type: binding; settings: read-out: K d ^NADP+ /
T1 construct: gene PETH; preparation of the assayed enzyme not described; monomeric FAD flavoprotein
T1 sequence (P10933 53-360): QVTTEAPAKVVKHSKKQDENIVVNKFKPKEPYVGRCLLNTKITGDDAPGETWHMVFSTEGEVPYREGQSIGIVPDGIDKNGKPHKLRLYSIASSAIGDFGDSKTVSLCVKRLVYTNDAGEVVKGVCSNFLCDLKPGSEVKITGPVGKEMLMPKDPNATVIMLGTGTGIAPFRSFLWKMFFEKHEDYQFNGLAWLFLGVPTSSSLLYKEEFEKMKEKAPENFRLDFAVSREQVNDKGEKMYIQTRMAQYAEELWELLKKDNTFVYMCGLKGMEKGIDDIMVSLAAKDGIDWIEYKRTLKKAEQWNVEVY
Text: difference absorption spectroscopy on Pea leaf FNR

LepFNR [2] = target: T2, LepFNR (Leptospira interrogans, UniProt Q8EY89); test: difference absorption spectroscopy titration; assay type: binding
T2 construct: gene LA_4327; recombinant in E. coli BL21(DE3)pLysS, thioredoxin fusion (pET32JO-LepFNR) cut off by thrombin; monomeric FAD flavoprotein
Text: difference absorption spectroscopy titration on LepFNR

E. coli FNR [3] = target: T3, E. coli FNR (Escherichia coli, UniProt P28861); test: difference absorption spectroscopy; assay type: binding; settings: read-out: K d ^NADP+ /
T3 construct: gene fpr; ferredoxin-NADP(H) reductase, not the FNR transcription regulator
T3 sequence (P28861 2-248): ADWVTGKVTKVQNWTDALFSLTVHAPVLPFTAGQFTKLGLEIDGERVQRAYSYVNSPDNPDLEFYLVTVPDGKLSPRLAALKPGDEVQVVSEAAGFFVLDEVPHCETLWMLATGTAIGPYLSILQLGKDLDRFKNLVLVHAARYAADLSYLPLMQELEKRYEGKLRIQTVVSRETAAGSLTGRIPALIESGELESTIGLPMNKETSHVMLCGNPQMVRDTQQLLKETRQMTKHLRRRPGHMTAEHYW
Text: difference absorption spectroscopy on E. coli FNR

LepFNR [4] = target: T2, LepFNR; test: UV-visible spectrum; FAD fluorescence (release with urea); assay type: binding; settings: noncovalently bound prosthetic group, 50 mM Tris-HCl pH 8.0, 25 °C
E. coli FNR [5] = target: T3, E. coli FNR; test: UV-visible spectrum; assay type: binding; settings: noncovalently bound prosthetic group
[6] = test system: NC(=O)C1=CN([C@@H]2O[C@H](COP(=O)(O)OP(=O)(O)OC[C@H]3O[C@@H](n4cnc5c(N)ncnc54)[C@H](OP(=O)(O)O)[C@@H]3O)[C@@H](O)[C@H]2O)C=CC1; test: purified protein; settings: 1 mM potassium ferricyanide, NADPH regenerating system, 50 mM Tris-HCl pH 8.0, 30 °C
[7] = target: Leptospira interrogans ferredoxin-NADP(H) reductase (L. interrogans); remark: listed apart in the source
purified protein [8] = substrate: NC(=O)C1=CN([C@@H]2O[C@H](COP(=O)(O)OP(=O)(O)OC[C@H]3O[C@@H](n4cnc5c(N)ncnc54)[C@H](OP(=O)(O)O)[C@@H]3O)[C@@H](O)[C@H]2O)C=CC1; test: purified protein; assay type: biochemical, Escherichia coli; settings: 1 mM potassium ferricyanide, NADPH regenerating system, 50 mM Tris-HCl pH 8.0, 30 °C
purified protein [9] = substrate: NC(=O)C1=CN([C@@H]2O[C@H](COP(=O)(O)OP(=O)(O)OC[C@H]3O[C@@H](n4cnc5c(N)ncnc54)[C@H](OP(=O)(O)O)[C@@H]3O)[C@@H](O)[C@H]2O)C=CC1; test: purified protein; assay type: biochemical, Lathyrus oleraceus; settings: 1 mM potassium ferricyanide, NADPH regenerating system, 50 mM Tris-HCl pH 8.0, 30 °C

T2 sequence (Q8EY89 entry or part of it): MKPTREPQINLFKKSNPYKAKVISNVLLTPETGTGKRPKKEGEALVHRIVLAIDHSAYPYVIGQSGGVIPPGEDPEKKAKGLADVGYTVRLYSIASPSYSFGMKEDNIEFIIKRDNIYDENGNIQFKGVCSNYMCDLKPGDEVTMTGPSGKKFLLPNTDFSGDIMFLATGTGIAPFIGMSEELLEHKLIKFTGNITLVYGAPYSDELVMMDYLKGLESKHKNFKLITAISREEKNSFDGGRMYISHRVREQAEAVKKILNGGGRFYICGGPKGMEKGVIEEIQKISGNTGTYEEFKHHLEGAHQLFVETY

NADPH-cytochrome c reductase activity of LepFNR with LB107 ferredoxin under anaerobic conditions at different pH values; maximal specific activity at pH 6.5, lower at higher pH [1]: 6.13 µmol/min/mg
Molecule: Leptospira interrogans LB107 [4Fe-4S] ferredoxin (natural protein)

Molecule: NC(=O)c1ccc[n+]([C@@H]2O[C@H](COP(=O)(O)OP(=O)(O)OC[C@H]3O[C@@H](n4cnc5c(N)ncnc54)[C@H](OP(=O)(O)O)[C@@H]3O)[C@@H](O)[C@H]2O)c1 [NADP^+]
Kd (Pea leaf FNR): 11.3 ± 2.1 µM | Kd (LepFNR [2]): 13.2 ± 3.1 µM | Kd (E. coli FNR [3]): 7.6 ± 2.2 µM

Molecule: Cc1cc2nc3c(=O)[nH]c(=O)nc-3n(C[C@H](O)[C@H](O)[C@H](O)COP(=O)(O)OP(=O)(O)OC[C@H]3O[C@@H](n4cnc5c(N)ncnc54)[C@H](O)[C@@H]3O)c2cc1C [FAD]
UV-visible spectrum; FAD fluorescence (release with urea) (LepFNR [4]): the prosthetic group remains bound to the enzyme | UV-visible spectrum (E. coli FNR [5]): spectra of the pea leaf FNR, E. coli FNR and LepFNR, all essentially in oxidized states

Molecule: LepFNR (Leptospira interrogans serovar Lai str. 56601)
Km [6]: 14.5 ± 1.7 µM | kcat [6]: 258 ± 13.7 s⁻¹ | kcat/Km [6]: 1.78e+07 M⁻¹ s⁻¹

Molecule: Pisum sativum leaf ferredoxin (from UniProt P09911 53-149) (natural protein)
NADPH-cytochrome c reductase activity of LepFNR with P. sativum leaf ferredoxin; the reaction was linear with pea leaf ferredoxin up to 70 µM, no kinetic parameters determined [7]: 2.5 s⁻¹

B1: E. coli FNR (Escherichia coli K-12) (protein)
chain: ADWVTGKVTKVQNWTDALFSLTVHAPVLPFTAGQFTKLGLEIDGERVQRAYSYVNSPDNPDLEFYLVTVPDGKLSPRLAALKPGDEVQVVSEAAGFFVLDEVPHCETLWMLATGTAIGPYLSILQLGKDLDRFKNLVLVHAARYAADLSYLPLMQELEKRYEGKLRIQTVVSRETAAGSLTGRIPALIESGELESTIGLPMNKETSHVMLCGNPQMVRDTQQLLKETRQMTKHLRRRPGHMTAEHYW
notes: ferredoxin-NADP(H) reductase, not the FNR transcription regulator
Km (purified protein [8]): 8.3 ± 0.5 µM | kcat (purified protein [8]): 38.2 ± 2.3 s⁻¹ | kcat/Km (purified protein [8]): 5e+06 M⁻¹ s⁻¹

B2: Pea leaf FNR (Lathyrus oleraceus) (protein)
chain: QVTTEAPAKVVKHSKKQDENIVVNKFKPKEPYVGRCLLNTKITGDDAPGETWHMVFSTEGEVPYREGQSIGIVPDGIDKNGKPHKLRLYSIASSAIGDFGDSKTVSLCVKRLVYTNDAGEVVKGVCSNFLCDLKPGSEVKITGPVGKEMLMPKDPNATVIMLGTGTGIAPFRSFLWKMFFEKHEDYQFNGLAWLFLGVPTSSSLLYKEEFEKMKEKAPENFRLDFAVSREQVNDKGEKMYIQTRMAQYAEELWELLKKDNTFVYMCGLKGMEKGIDDIMVSLAAKDGIDWIEYKRTLKKAEQWNVEVY
notes: preparation of the assayed enzyme not described; monomeric FAD flavoprotein
Km (purified protein [9]): 15.0 ± 1.6 µM | kcat (purified protein [9]): 325 ± 16.5 s⁻¹ | kcat/Km (purified protein [9]): 2.17e+07 M⁻¹ s⁻¹
